Results on 72 sequences are retold here after the supplement of paper PMC10567573.

This data set in a line: protein stability index of a GFP-peptide fusion (GPS, HEK-293T) (PSI 1-6); higher = more stable.
The mark [1] stands for this setting: treatment: DMSO, c terminus: a fixed tail appended.
Where [2] appears, read: treatment: MLN4924 1 uM, 8 h, c terminus: a fixed tail appended.

± gives the standard deviation.
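Note: 24-mer peptide tiles fused after GFP, lentivirally expressed, FACS-sorted into six equal bins by GFP/DsRed ratio, decoded by Illumina sequencing, PSI is the read-weighted mean bin number.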

Regarding AVYFAEADDPTSGFSSIPDAFWWA [KCNA3], the protein stability index amounted to 2 ± 0.16 under setting [1] and 2.12 ± 0.24 under setting [2].

With HLQLLGAVCMFLASKLKETSPLTA [CCND2], the protein stability index worked out at 2.48 ± 0.34 under setting [1] and 2.36 ± 0.25 under setting [2].

In the case of REPVTKAEMLGSVVGNWQYFFPVI [MAGEA3], the protein stability index by setting is: under setting [1], 2.17 ± 0.18; under setting [2], 2.25 ± 0.27.

With MQPSKPQQPSLNTMIQQQNMQQPM [CLINT1], the protein stability index under setting [1] was found to be 4.1 ± 0.13 and the protein stability index under setting [2] came to 4.34 ± 0.46.

Take IFQMVIICLMCVHSLERAGSKQYS [SMG5]: the protein stability index is, setting by setting: under setting [1], 3.21 ± 0.28; under setting [2], 3.27 ± 0.48.

Consider PLRERARKLSQGILIIRFEMPYNI [YJU2B], for which the protein stability index amounted to 2.9 ± 0.7 under setting [1] and 2.62 ± 0.39 under setting [2].

Regarding PLGTQVAVNAHQWLDNPERWNKVK [SEPHS2], the protein stability index reads like this: under setting [1], 3.65 ± 0.084; under setting [2], 3.61 ± 0.26.

Regarding KKCVKKFVEYCDVNNDKSISVQEL [SMOC2], the protein stability index was found to be 3.57 ± 0.21 under setting [1] and 3.68 ± 0.49 under setting [2].

Regarding VQVPEAWEELLTMKVEAKSHLQWQ [ZSCAN9], the protein stability index by setting is: under setting [1], 2.46 ± 0.65; under setting [2], 2.54 ± 0.26.

Regarding VQHQRVHTGEKPYKCLECGKAFSQ [ZNF24], the protein stability index reads like this: under setting [1], 3.29 ± 0.55; under setting [2], 3.66 ± 0.46.

In the case of ITNVDLREYLSEEVQAVHKNTTYD [USP39], the protein stability index amounted to 4.2 ± 0.24 under setting [1] and 4.17 ± 0.19 under setting [2].

In the case of QGPPMVPPYQGGPPRPPMGMRPPV [ZNF207], the protein stability index by setting is: under setting [1], 4.31 ± 0.12; under setting [2], 4.18 ± 0.081.

SNAERGTAEPFPRLHNLYSTPRCA [CBY2]: the protein stability index is 3.95 ± 0.26 under setting [1] and 4.03 ± 0.14 under setting [2].

For LTIEERYLPQCSYFKCVQKDIQPY [CCND2], the protein stability index reads like this: under setting [1], 2.37 ± 0.31; under setting [2], 2.49 ± 0.24.

EELEEDIRKKLKDSGDVSNVIEKV [RHOBTB3]: the protein stability index reads like this: under setting [1], 5.37 ± 0.31; under setting [2], 5.5 ± 0.25.

As to SQSSTYRGTYEQDGRFEKRQGNPS [ZNF396], the protein stability index stood at 4.74 ± 0.3 under setting [1] and 4.79 ± 0.31 under setting [2].

As for GKTPTVRAALICLTLVLVASVLLQ [CD207], the protein stability index by setting is: under setting [1], 3.17 ± 0.16; under setting [2], 3.11 ± 0.76.

For the sequence GFSCDGTANTFRVMFKEPIEILPN [BTBD1], the protein stability index was 2.6 ± 0.22 under setting [1] and 2.73 ± 0.31 under setting [2].

For the sequence GNCKYKVDCACLKENPECPVLKRS [KMT2E], the protein stability index by setting is: under setting [1], 3.41 ± 0.5; under setting [2], 4.05 ± 0.74.

Regarding TQLKIENNPFAKGFRGSDDMELHR [TBX5], the protein stability index under setting [1] amounted to 4.04 ± 0.25 and the protein stability index under setting [2] stood at 4.02 ± 0.67.

In the case of EVLENVFRVNCYPGIDIREDLAQK [HESX1], the protein stability index runs as follows: under setting [1], 2.46 ± 0.31; under setting [2], 2.35 ± 0.66.

For the sequence SHECKPEGYEFCHNRKVLTIFSAS [PPEF2], the protein stability index under setting [1] turned out to be 2.73 ± 0.38 and the protein stability index under setting [2] worked out at 2.76 ± 0.17.

Consider SLKVKFFDLERENACATKEQKNHT [PLD5], for which the protein stability index under setting [1] came to 4 ± 0.36.

Regarding WGRLTSYSGGGYYLDLPGSRQGSA [PKD2L1], the protein stability index is 2.63 ± 0.18 under setting [1] and 2.69 ± 0.18 under setting [2].

On to ELARIVLLRHGMDRLWRPSKVLSL [RAB40B], for which the protein stability index came to 2.54 ± 0.67 under setting [1] and 2.43 ± 0.75 under setting [2].

Consider DSAELEPGSQTAVKNSNRYDVEMT [FBXO34], for which the protein stability index under setting [1] is 5.26 ± 0.2 and the protein stability index under setting [2] turned out to be 5.29 ± 0.2.

For the sequence DFKSCPQGPQGREGLAFLVSCPEG [PWWP2B], the protein stability index worked out at 3.61 ± 0.15 under setting [1] and 3.75 ± 0.16 under setting [2].

Consider KRMSELCIDFNKNLNEDDTFLVFS, for which the protein stability index reads like this: under setting [1], 2.08 ± 0.25; under setting [2], 2.58 ± 0.11.

For the sequence PRCPRMVLSLKEGAREEDLDAVEA [FBXO3], the protein stability index is 5.32 ± 0.36 under setting [1] and 5.27 ± 0.17 under setting [2].

As for GQFVSLDGAGKTPTLGGGFHVNLG [BRF1], the protein stability index came to 2.96 ± 0.37 under setting [1] and 3.06 ± 0.11 under setting [2].

Regarding LRAFVNSQIQGHKEMSKVWNDLRP [SNX8], the protein stability index is 2.39 ± 0.21 under setting [1] and 2.62 ± 0.27 under setting [2].

QVQSLITNVESQLAEIRCDLERQN [KRT34] registered a protein stability index under setting [1] of 3.43 ± 0.21 and a protein stability index under setting [2] of 3.66 ± 0.33.

With DWGTPRELTFSYIAFDGVVGSGGR [RTN2], the protein stability index is, setting by setting: under setting [1], 1.91 ± 0.22; under setting [2], 2.43 ± 0.37.

Take LRKIIDFIYTAKLSLNMDNLQDTL [KLHL13]: the protein stability index by setting is: under setting [1], 2.79 ± 0.63; under setting [2], 2.44 ± 0.78.

On to ESSILGTDIDLQTIDNDIVSMEIF [M1AP], for which the protein stability index reads like this: under setting [1], 3.86 ± 0.34; under setting [2], 3.74 ± 0.35.

Take FSNTSELAKDFIRRLLVKDPKRRM [DAPK3]: the protein stability index amounted to 2.36 ± 0.19 under setting [1] and 2.16 ± 0.44 under setting [2].

Turning to TFVFLASLLVLIEPVAAGSGIPEV [CLCN6], the protein stability index runs as follows: under setting [1], 2.91 ± 0.58; under setting [2], 2.71 ± 0.6.

In turn, NIMPYESTRVCLQPIRGVEGSDYI [PTPRD] displayed a protein stability index under setting [1] of 2.91 ± 0.084 and a protein stability index under setting [2] of 3.09 ± 0.18.

Consider EKLIQERSQQQEPLLCPSYQSYFK [KRT34], for which the protein stability index is 3.36 ± 0.23 under setting [1] and 3.41 ± 0.32 under setting [2].

Take DELALSLGYAASLEASVQDDAGTS [C2CD2L]: the protein stability index was determined as 5.34 ± 0.32 under setting [1] and 5.22 ± 0.21 under setting [2].

On to KRSVYIDARDEELEKDTMDNWDEK [ZC3H15], for which the protein stability index reads like this: under setting [1], 4.98 ± 0.31; under setting [2], 4.88 ± 0.24.

In the case of AQEQLRPQTPEPVEGRKHVDVQTE [RSPH3], the protein stability index is, setting by setting: under setting [1], 5.41 ± 0.31; under setting [2], 5.34 ± 0.24.

On to VGGQDTGATWRTSGLLEELNAEAG [C18orf25], for which the protein stability index under setting [1] stood at 4.57 ± 0.2 and the protein stability index under setting [2] amounted to 4.59 ± 0.34.

On to FPNWAMALLITLIVVATLPIPVVF [SLC6A17], for which the protein stability index was 3.43 ± 0.88 under setting [1] and 3.04 ± 0.33 under setting [2].

Turning to LILSREASWAKPHYEFNLSRMKFR [LCOR], the protein stability index is 2.27 ± 0.18 under setting [1] and 2.11 ± 0.28 under setting [2].

In the case of SLGYGTNVAATGISQYEDDLPPPP [APBB1IP], the protein stability index runs as follows: under setting [1], 4.86 ± 0.44; under setting [2], 4.87 ± 0.42.

In the case of EPGKQERDVYLPAGKWRSYKGELF [MYORG], the protein stability index reads like this: under setting [1], 3.17 ± 0.087; under setting [2], 3.2 ± 0.21.

ASGNATQTESGSEEVSSTVHIETF [C10orf62]: the protein stability index by setting is: under setting [1], 5.11 ± 0.21; under setting [2], 5.27 ± 0.2.

ASSLNGGNIKGIEGHSPGNLPKFC [ZC2HC1A]: the protein stability index reads like this: under setting [1], 3.56 ± 0.078; under setting [2], 4.02 ± 0.15.

Turning to DNLGYRTGYPYRYPALREKSKKYS [ADD1], the protein stability index under setting [1] stood at 3.56 ± 0.13 and the protein stability index under setting [2] amounted to 3.69 ± 0.1.

As to PYGVYKKQQKDPSEEAAVLQYASL [ATE1], the protein stability index is, setting by setting: under setting [1], 3.62 ± 0.23; under setting [2], 3.8 ± 0.5.

For RFSSGGACGLGGGYGGGFSSSSSF [KRT16], the protein stability index turned out to be 2.38 ± 0.64 under setting [1] and 2.1 ± 0.35 under setting [2].

Consider EKMEEEEQTCDPDSSLHWSSSYSP [ZNF396], for which the protein stability index is, setting by setting: under setting [1], 5.3 ± 0.32; under setting [2], 5.56 ± 0.065.

As to GDWHSPTLIREKSFGACLREETPR [ELOA2], the protein stability index is, setting by setting: under setting [1], 3.61 ± 0.3; under setting [2], 3.76 ± 0.32.

As for VIKGVLFRIFIIWAISSWFRRGPA [CLPTM1], the protein stability index is, setting by setting: under setting [1], 2.75 ± 0.58; under setting [2], 2.87 ± 0.68.

As to GFAERRIDKFGFIVGSQGAEGALE [TBC1D10A], the protein stability index is, setting by setting: under setting [1], 3.93 ± 0.46; under setting [2], 3.93 ± 0.19.

As to HMVKISGGPHISYPPLHEWVLREG [MAGEA3], the protein stability index by setting is: under setting [1], 2.29 ± 0.34; under setting [2], 2.43 ± 0.35.

Consider EHKETSRNLHSHYHEAPMTRKHYQ [POMT2], for which the protein stability index amounted to 4.09 ± 0.28 under setting [1] and 4.22 ± 0.2 under setting [2].

On to VLKLLLLLLLFGVAGGLVACRVTE [LRRC59], for which the protein stability index runs as follows: under setting [1], 2.77 ± 0.73; under setting [2], 2.68 ± 0.81.

For the sequence LDREIRLQRLSHSGSRVRVGFRLC [SCNN1D], the protein stability index by setting is: under setting [1], 2.39 ± 0.17; under setting [2], 2.48 ± 0.16.

Sequence RYDHGTFFPMGDEGASSQIGRAAG [HDAC6] came in with a protein stability index under setting [1] of 4.24 ± 0.37 and a protein stability index under setting [2] of 4.13 ± 0.22.

RLPESVERLTGVSISQVNHKPLRT [FLOT1]: the protein stability index stood at 4.06 ± 0.13 under setting [1] and 4.16 ± 0.32 under setting [2].

As to WIHCFEGVTAIIFCVALSDYDLVL [GNAI1], the protein stability index is, setting by setting: under setting [1], 3.2 ± 0.53; under setting [2], 3.22 ± 0.24.

LVSWLPRLNAYRGYCSNQLAAKAL [NET1]: the protein stability index is, setting by setting: under setting [1], 2.5 ± 1; under setting [2], 2.1 ± 0.2.

As to GPDNLVLLNPEKYKAKSRSPGSPV [ADD1], the protein stability index was 4.47 ± 0.25 under setting [1] and 4.63 ± 0.13 under setting [2].

Turning to VCVRAHESVVKSEDFSLPAYMDRR [COX4I1], the protein stability index reads like this: under setting [1], 3.1 ± 0.43; under setting [2], 3.14 ± 0.24.

For LRRIRAESGTKGLFAGFLPRIIKA [SLC25A39], the protein stability index reads like this: under setting [1], 2.05 ± 0.27; under setting [2], 2.15 ± 0.33.

Take SVQQNGSIYIHVYFTKSGFHPDPR [CLPTM1]: the protein stability index turned out to be 3.14 ± 0.98 under setting [1] and 2.29 ± 0.56 under setting [2].

For the sequence LLTLLPQLQEAWQQRTPSPVPGG [RSAD1], the protein stability index runs as follows: (treatment: DMSO, c terminus: native) 3.3 ± 0.21; (treatment: MLN4924 1 uM, 8 h, c terminus: native) 2.83 ± 0.54.

For the sequence RLCLVCGDIASGYHYGVASCEACK [ESRRG], the protein stability index runs as follows: under setting [1], 4.15 ± 0.12; under setting [2], 4.21 ± 0.18.

Turning to MDGQTDFWRDWEDYAHGFGNISGE [TNXB], the protein stability index by setting is: under setting [1], 3.94 ± 0.34; under setting [2], 4.34 ± 0.58.

Consider MYHPRELYPSLGAGYRLGPAQPGA [TBX6], for which the protein stability index worked out at 2.78 ± 0.25 under setting [1] and 2.71 ± 0.11 under setting [2].
